Test results from the supplement of paper PMC10567573.

B1: PKD2L1 (parent)
chain: VFIFYYVVEEILELHIHRLRYLSS

Variants of: B1
Assay: protein stability index of a GFP-peptide fusion (GPS, HEK-293T) (PSI 1-6); higher = more stable
Conditions: c terminus: a fixed tail appended
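Note: lentivirally expressed fusions sorted by FACS into six bins by GFP to DsRed ratio, PSI derived from sequencing read proportions per bin multiplied by bin number.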

Variant	protein stability index
RFIFYYVVEEILELHIHRLRYLSS [V1R]	2.23
VFIFYYVVETILELHIHRLRYLSS [E10T]	1.62
VFIFYYVVEDILELHIHRLRYLSS [E10D]	2.75
VFIFYYVVEIILELHIHRLRYLSS [E10I]	2.56
VFIFYYVVEWILELHIHRLRYLSS [E10W]	2.69
VFIFYYVVELILELHIHRLRYLSS [E10L]	2.35
VFIFYYVVEHILELHIHRLRYLSS [E10H]	2.68
VFIFYYVVECILELHIHRLRYLSS [E10C]	1.36
VFIFYYVVENILELHIHRLRYLSS [E10N]	2.86
VFIFYYVVEPILELHIHRLRYLSS [E10P]	2.76
VFIFYYVVERILELHIHRLRYLSS [E10R]	2.41
VFIFYYVVEAILELHIHRLRYLSS [E10A]	3.28
VFIFYYVNEEILELHIHRLRYLSS [V8N]	2.16
VFIFYYVGEEILELHIHRLRYLSS [V8G]	4.19
VFIFYYVFEEILELHIHRLRYLSS [V8F]	3.06
VFIFYYVHEEILELHIHRLRYLSS [V8H]	2.51
VFIFYYVTEEILELHIHRLRYLSS [V8T]	1.93
VFIFYYVLEEILELHIHRLRYLSS [V8L]	2.74
VFIFYYVQEEILELHIHRLRYLSS [V8Q]	1.9
VFIFYYVDEEILELHIHRLRYLSS [V8D]	1.41
VFIFYYVWEEILELHIHRLRYLSS [V8W]	2.57
VFIFYYVMEEILELHIHRLRYLSS [V8M]	3.67
VFIFYYVIEEILELHIHRLRYLSS [V8I]	3.22
VFIQYYVVEEILELHIHRLRYLSS [F4Q]	2.99

Variant	protein stability index
VFIKYYVVEEILELHIHRLRYLSS [F4K]	2.57
VFIVYYVVEEILELHIHRLRYLSS [F4V]	3.48
VFIYYYVVEEILELHIHRLRYLSS [F4Y]	2.36
VFIAYYVVEEILELHIHRLRYLSS [F4A]	4
VFISYYVVEEILELHIHRLRYLSS [F4S]	2.7
VFIIYYVVEEILELHIHRLRYLSS [F4I]	1.48
VFIGYYVVEEILELHIHRLRYLSS [F4G]	3.56
VFINYYVVEEILELHIHRLRYLSS [F4N]	2.21
VFIWYYVVEEILELHIHRLRYLSS [F4W]	1.29
VFIMYYVVEEILELHIHRLRYLSS [F4M]	2.56
VFIHYYVVEEILELHIHRLRYLSS [F4H]	2.09
VFEFYYVVEEILELHIHRLRYLSS [I3E]	4
VFSFYYVVEEILELHIHRLRYLSS [I3S]	2.73
VFNFYYVVEEILELHIHRLRYLSS [I3N]	3.08
VFHFYYVVEEILELHIHRLRYLSS [I3H]	1.62
VFAFYYVVEEILELHIHRLRYLSS [I3A]	1.69
VFPFYYVVEEILELHIHRLRYLSS [I3P]	3.06
VFTFYYVVEEILELHIHRLRYLSS [I3T]	1.54
VFLFYYVVEEILELHIHRLRYLSS [I3L]	2.25
VFMFYYVVEEILELHIHRLRYLSS [I3M]	3.13
VFDFYYVVEEILELHIHRLRYLSS [I3D]	3.59
VFRFYYVVEEILELHIHRLRYLSS [I3R]	3.57
VFGFYYVVEEILELHIHRLRYLSS [I3G]	2.35
VFYFYYVVEEILELHIHRLRYLSS [I3Y]	3.43

Variant	protein stability index
VFFFYYVVEEILELHIHRLRYLSS [I3F]	2.89
VFIFYYVVREILELHIHRLRYLSS [E9R]	4
VFIFYYVVCEILELHIHRLRYLSS [E9C]	1.88
VFIFYYVVNEILELHIHRLRYLSS [E9N]	2.21
VFIFYYVVPEILELHIHRLRYLSS [E9P]	2.49
VFIFYYVVIEILELHIHRLRYLSS [E9I]	3.16
VFIFYYVVYEILELHIHRLRYLSS [E9Y]	1.67
VFIFYYVVKEILELHIHRLRYLSS [E9K]	3.5
VFIFYYVVQEILELHIHRLRYLSS [E9Q]	2.61
VFIFYYVVWEILELHIHRLRYLSS [E9W]	4.55
VFIFYYVVGEILELHIHRLRYLSS [E9G]	1.71
VFIFYYVVSEILELHIHRLRYLSS [E9S]	1.63
VFIFYYVVDEILELHIHRLRYLSS [E9D]	3.91
VFIFYYVVEEHLELHIHRLRYLSS [I11H]	1.24
VFIFYYVVEEQLELHIHRLRYLSS [I11Q]	3.96
VFIFYYVVEEGLELHIHRLRYLSS [I11G]	2.73
VFIFYYVVEEKLELHIHRLRYLSS [I11K]	2.51
VFIFYYVVEETLELHIHRLRYLSS [I11T]	2.64
VFIFYYVVEEFLELHIHRLRYLSS [I11F]	3.73
VFIFYYVVEEVLELHIHRLRYLSS [I11V]	3.46
VFIFYYVVEESLELHIHRLRYLSS [I11S]	3.09
VFIFYYVVEEDLELHIHRLRYLSS [I11D]	2.57
VFIFYYVVEEELELHIHRLRYLSS [I11E]	3.87
VFIFYYVVEECLELHIHRLRYLSS [I11C]	4.54

Variant	protein stability index
VFIFYYVVEENLELHIHRLRYLSS [I11N]	3.75
VFIFYYVVEEPLELHIHRLRYLSS [I11P]	1.89
VFIFYYVVEEMLELHIHRLRYLSS [I11M]	2.46
VFIFYYVVEEYLELHIHRLRYLSS [I11Y]	2.68
VFIFYYVVEEILDLHIHRLRYLSS [E13D]	2.04
VFIFYYVVEEILCLHIHRLRYLSS [E13C]	3.03
VFIFYYVVEEILFLHIHRLRYLSS [E13F]	3.37
VFIFYPVVEEILELHIHRLRYLSS [Y6P]	1.54
VFIFYRVVEEILELHIHRLRYLSS [Y6R]	2.78
VFIFYWVVEEILELHIHRLRYLSS [Y6W]	3.85
VFIFYFVVEEILELHIHRLRYLSS [Y6F]	1.65
VFIFYTVVEEILELHIHRLRYLSS [Y6T]	3.44
VFIFYKVVEEILELHIHRLRYLSS [Y6K]	2.12
VFIFYDVVEEILELHIHRLRYLSS [Y6D]	2.42
VFIFYAVVEEILELHIHRLRYLSS [Y6A]	1.41
VFIFYIVVEEILELHIHRLRYLSS [Y6I]	2.85
VFIFYHVVEEILELHIHRLRYLSS [Y6H]	2.85
VFIFYEVVEEILELHIHRLRYLSS [Y6E]	1.79
VFIFYLVVEEILELHIHRLRYLSS [Y6L]	3.99
VFIFYMVVEEILELHIHRLRYLSS [Y6M]	2.17
VFIFYNVVEEILELHIHRLRYLSS [Y6N]	2.01
VFIFYSVVEEILELHIHRLRYLSS [Y6S]	4.37
